Source: the supplement of paper PMC9732359
± gives the uncertainty stated by the source.

Assay: protein stability index of a GFP-peptide fusion (yeast GPS) (PSI 1-4); higher = more stable; sorted into four equal gates, so the index is relative within each strain
Settings: pdr5∆
Method in brief: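 Tiled yeast protein peptides of 17 residues were each joined downstream of GFP, on plasmids that also express Cherry. The pooled library was maintained in yeast, and mid-log cultures in leucine-free medium were sorted into four equal gates on the GFP/Cherry ratio. Plasmids from every gate were amplified by PCR and sequenced on Illumina, with barcodes linking reads to strains. The protein stability index of a peptide is its gate-number-weighted read frequency summed over the gates.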

Sequence	protein stability index
SNDKFVHVQLLINLKIS [SRB8]	1.82 ± 0.045
SNEFVPNTSDNNNNSNN [SWI1]	2.79 ± 0.11
SNGFNNVTFGSKKDPRI [YMR153W/NUP53]	2.74 ± 0.059

Same assay, conditions: san1∆

Sequence	protein stability index
SEVQRTMLELLNQLDGF [RPT6]	1.86 ± 0.15
SEYDRGVSTFSPEGRLF [PUP2]	3.32 ± 0.096
SFDEWFNTPFANTGGQD [SNF2]	3.41 ± 0.095
SFFNISPDAPKEIMDKI [SIN4]	3 ± 0.13
SFKLCTLLIAIRGSNRD [YML103C/NUP188]	2.01 ± 0.077
SFLDPLNYGNICEPKET [YJL039C/NUP192]	3.01 ± 0.095
SFQKIPLSRINENENFG [YML103C/NUP188]	2.97 ± 0.079
SFTDILKSAIRDEIAKN [RPN12]	3.08 ± 0.09
SGKSNILDAICFVLGIA [SMC2]	2.25 ± 0.11
SGKSNTSNDASNKKETK [ITC1]	3.29 ± 0.058
SGLNRAISTGNWSLKRF [RET1]	2.67 ± 0.087
SGNGSNPNTNTNSNNTP [PGD1]	2.95 ± 0.038
SGPFKVNGVPLRRVNAR [RPL6A]	2.96 ± 0.24
SGQKTNRQVMHKMGVER [SIR3]	3.4 ± 0.25
SGTAATGAASNQSSFNF [YOR098C/NUP1]	2.68 ± 0.12
SGTTNFMRNGLLEGLNE [UBP6]	3.22 ± 0.17
SHFSLDQFITSLKCTDP [ITC1]	2.35 ± 0.076
SHISASASPHLAPNMQL [SNF2]	2.93 ± 0.033
SHNENKMDFSSKEGQYK [YIL149C/MLP2]	3.25 ± 0.065
SHNFQNAIFQMESEEVP [PCI8]	2.7 ± 0.049
SHTGLIRKYGLNICRQC [RPS29A]	1.51 ± 0.093
SIDNDFSEEKAEEFDFN [YAR002W/NUP60]	3.17 ± 0.092
SIIKAKLPLLNESLIPL [YML103C/NUP188]	1.84 ± 0.082
SILSFVDKELLEPGCSV [RPT2]	2.3 ± 0.078

Sequence	protein stability index
SINATALAFGYVKSLHK [SIN4]	3.1 ± 0.22
SIPMGGQSINDSLKKLL [ARP9]	2.47 ± 0.08
SISTYKDILNLASEVGD [ECM29]	2.71 ± 0.071
SITTGNDNENIVNNDLP [MED2]	2.57 ± 0.054
SKCLNLISDSNINNSSV [SWI3]	1.6 ± 0.11
SKFHFSWNESEDTLSGY [PRP28]	3.2 ± 0.075
SKIQEIESIRSCKDSQL [YIL149C/MLP2]	2.77 ± 0.041
SKKLDVTVEQLRSIYHQ [NSL1]	1.85 ± 0.055
SKKRKLVADGVFYAELN [RPS3]	1.55 ± 0.13
SKKVTSGVPRLKEILNV [RPO21]	1.55 ± 0.23
SKLLQTTLKLSPSPILL [NUT1]	1.72 ± 0.091
SKNCYLSEATESDLYKL [RPB2]	2.9 ± 0.17
SKNFNVILASSLNEVGT [YML103C/NUP188]	2.56 ± 0.051
SKNLGEINTALNTLLVT [SWI1]	1.57 ± 0.11
SKNSPAEDDVIIPQDIL [YJR042W/NUP85]	3.07 ± 0.12
SKQIFTHPKDTFYITRE [ARP9]	2.93 ± 0.038
SKRGNDKKHFNNKNKRV [RPC53]	3.09 ± 0.14
SKSESDSQIVTPGELVT [RRP4]	2.88 ± 0.077
SKSTSMKLSMPPEVTSS [POP1]	2.44 ± 0.057
SKSYTPRKLVLSSGENR [SMC4]	1.93 ± 0.056
SKTGIIAYSDSQSSNAN [SIN4]	2.68 ± 0.044
SKTGSVDTLHNKEGTLE [SSN2]	3.19 ± 0.083
SKTLSLIQSYSLLDKPD [FAS1]	2.12 ± 0.21
SLDTLELESITESITHD [NUT1]	2.76 ± 0.059

Sequence	protein stability index
SLEQRTLNPDLFLYKEL [RPC82]	3.21 ± 0.092
SLINSHLKILASSNFPF [RPC82]	2.28 ± 0.073
SLISTRNDSTVNDSVIS [BRN1]	2.72 ± 0.06
SLKDLSSLRNQELLNAE [RPN3]	3.34 ± 0.14
SLKGYKIENSVQIGAEI [CSI1]	3.25 ± 0.13
SLLEKDIDAVNGAVGKR [ISW2]	2.9 ± 0.098
SLLLSSSFKEDCLSFAP [SSN2]	2.76 ± 0.14
SLRTPIAPKITPKVVRS [SEC65]	2.87 ± 0.1
SLSFGSGSAGANPAGAS [YJL041W/NSP1]	2.75 ± 0.18
SLSRDFVMKTRRRKGIS [SNU114]	3.02 ± 0.074
SLTISLYASDYASYFPY [RPN7]	1.6 ± 0.049
SLVFNRKLAVERAGHLL [PRE5]	1.43 ± 0.19
SLVKYPELLDSLAILGM [SWI1]	1.99 ± 0.075
SLVSTQSSSSTRSHEYG [REC8]	2.72 ± 0.057
SMATPTHSDSHEDMKRR [ROX3]	2.53 ± 0.091
SMENTPKVPVSAAATPS [GAL11]	2.24 ± 0.065
SMENYHLLIKIIRQLSE [SRB8]	2.31 ± 0.11
SMKDRAQHAVILDQEKY [RPS25A]	2.42 ± 0.14
SMRIQILRRQAILRQQQ [GAL11]	3.17 ± 0.19
SNADTNQNSDMKKKLEL [SRB8]	2.75 ± 0.11
SNAFYSVLRDTLVAQNL [SMC4]	1.94 ± 0.076
SNASRRKLINYTKKHLS [RPN4]	1.56 ± 0.097
SNDKFVHVQLLINLKIS [SRB8]	1.6 ± 0.064
SNEFVPNTSDNNNNSNN [SWI1]	2.71 ± 0.095
